In test [1] the target is human CCR8 (human) (UniProt P51685). Kind of test: flow cytometry on TALL-1 cells (endogenous CCR8).
Test [2] has as its target cynomolgus CCR8 (cynomolgus) (UniProt G7NYJ2). Kind of test: FACS on HEK293-cynomolgus CCR8 cells.
In test [3] the target is T1, human CCR1 (human) (UniProt P32246).
T1 sequence (looked up): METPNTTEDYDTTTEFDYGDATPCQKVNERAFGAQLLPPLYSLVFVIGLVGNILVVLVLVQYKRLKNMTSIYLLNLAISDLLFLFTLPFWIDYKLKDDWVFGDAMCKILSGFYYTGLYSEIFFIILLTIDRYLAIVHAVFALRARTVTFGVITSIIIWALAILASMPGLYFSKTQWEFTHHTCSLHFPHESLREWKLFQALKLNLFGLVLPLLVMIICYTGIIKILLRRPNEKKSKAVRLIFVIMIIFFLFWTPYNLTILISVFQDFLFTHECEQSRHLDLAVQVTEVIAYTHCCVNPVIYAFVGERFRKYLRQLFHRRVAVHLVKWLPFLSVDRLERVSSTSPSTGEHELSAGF
Kind of test: FACS on ExpiCHO-S-human CCR1 cells.

The target of test [4] is human CCR8 (human) (UniProt P51685). Briefly: FACS on HuT78 cells (endogenous human CCR8).
For test [5], the target named is cynomolgus CCR8 (cynomolgus) (UniProt G7NYJ2). Briefly: FACS on HEK293-cynomolgus CCR8 cells. The source holds these as a separate data set.
Chain of cynomolgus CCR8 (cynomolgus) (G7NYJ2 entry or part of it): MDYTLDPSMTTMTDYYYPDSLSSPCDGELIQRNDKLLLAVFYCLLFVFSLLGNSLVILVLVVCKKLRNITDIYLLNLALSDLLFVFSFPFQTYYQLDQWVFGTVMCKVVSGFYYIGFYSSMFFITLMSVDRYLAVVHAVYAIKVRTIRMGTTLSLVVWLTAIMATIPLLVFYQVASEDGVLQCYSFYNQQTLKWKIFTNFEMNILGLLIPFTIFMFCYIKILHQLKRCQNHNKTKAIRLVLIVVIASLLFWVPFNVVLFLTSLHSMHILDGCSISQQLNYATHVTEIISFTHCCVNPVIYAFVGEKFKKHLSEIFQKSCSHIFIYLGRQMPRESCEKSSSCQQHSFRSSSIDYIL
The target of test [6] is human CCR8 (human) (UniProt P51685). Briefly: FACS on HEK293-human CCR8 cells.
Test [7] shares this target. Kind of test: FACS on HuT78 cells (endogenous human CCR8). The source holds these as a separate data set.
The target of test [8] is cynomolgus CCR8 (cynomolgus) (UniProt G7NYJ2). Briefly: FACS on ExpiCHO-S-cynomolgus CCR8 cells.
The target is the same in test [9]. Kind of test: FACS on HEK293-cynomolgus CCR8 cells. This is another data set of the same source.
Test [10] concerns the target human CCR8 (human) (UniProt P51685). Briefly: FACS, competition with CCL1 on CHO-K1-human CCR8 cells.
Test [11] shares this target. Briefly: FACS, competition with AF647-human CCL1 on CHO-K1-human CCR8 cells.
Test [12] shares this target. Briefly: FACS, competition with CCL1 on CHO-K1-human CCR8 cells. The source holds these as a separate data set.
For test [13] the target is unchanged. Briefly: FACS on HEK293-human CCR8 cells. This is another data set of the same source.
The target is the same in test [14]. Kind of test: FACS, competition with AF647-human CCL1 on CHO-K1-human CCR8 cells. This is another data set of the same source.
For test [15] the target is unchanged. The description is as above. This is another data set of the same source.
Test [16] addresses T2, human CCR4 (human) (UniProt P51679).
T2 sequence (looked up): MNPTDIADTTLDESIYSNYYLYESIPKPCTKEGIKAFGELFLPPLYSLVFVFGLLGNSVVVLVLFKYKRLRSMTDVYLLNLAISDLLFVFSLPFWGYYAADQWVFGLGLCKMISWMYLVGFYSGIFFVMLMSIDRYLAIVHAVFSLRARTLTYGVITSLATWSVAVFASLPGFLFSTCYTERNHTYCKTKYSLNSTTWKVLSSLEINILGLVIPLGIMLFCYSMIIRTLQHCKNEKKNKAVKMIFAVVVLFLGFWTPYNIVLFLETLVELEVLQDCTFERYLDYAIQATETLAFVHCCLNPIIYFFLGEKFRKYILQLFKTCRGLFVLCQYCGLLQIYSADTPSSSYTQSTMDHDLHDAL
Kind of test: FACS on ExpiCHO-S-human CCR4 cells.

The target of test [17] is human CCR8 (human) (UniProt P51685). Kind of test: FACS on CHO-K1-human CCR8 cells.
Test [18] has the same target. Briefly: FACS on HEK293-human CCR8 cells. The source holds these as a separate data set.
In test [19] the target is cynomolgus CCR8 (cynomolgus) (UniProt G7NYJ2). Kind of test: FACS on HEK293-cynomolgus CCR8 cells. The source holds these as a separate data set.
Test [20] addresses human CCR8 (human) (UniProt P51685). Briefly: FACS on HEK293-human CCR8 cells. The source holds these as a separate data set.
The target is the same in test [21]. Briefly: FACS, competition with AF647-human CCL1 on CHO-K1-human CCR8 cells. The source holds these as a separate data set.
In test [22] the target is cynomolgus CCR8 (cynomolgus) (UniProt G7NYJ2). Briefly: FACS on HEK293-Cynomolgus CCR8 cells.

Chain of human CCR8 (human) (P51685 whole entry): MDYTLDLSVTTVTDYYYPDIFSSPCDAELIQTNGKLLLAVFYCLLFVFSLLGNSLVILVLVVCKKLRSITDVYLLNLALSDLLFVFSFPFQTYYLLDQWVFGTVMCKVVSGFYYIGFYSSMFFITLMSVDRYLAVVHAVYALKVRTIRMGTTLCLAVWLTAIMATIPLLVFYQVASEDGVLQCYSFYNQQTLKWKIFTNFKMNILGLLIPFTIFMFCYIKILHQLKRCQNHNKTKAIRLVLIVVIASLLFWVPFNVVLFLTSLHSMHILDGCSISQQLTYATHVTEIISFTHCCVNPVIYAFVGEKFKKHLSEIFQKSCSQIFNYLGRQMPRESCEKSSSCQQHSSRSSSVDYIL

In test [1], HuIgG1-G1m Isotype (antibody) had a Maximum MFI of 5.96 MFI.
For Human IgG1 (antibody), the Max MFI stood at 14300 MFI in test [2]; 20.3 MFI in test [3]; 7820 MFI in [4]; 5690 MFI in test [5]; 222 MFI in test [6]; 16900 MFI in test [7]. The Max MFI came out at 13 MFI in test [8]; 331 MFI in test [9]; 167 MFI in [13]; 7 MFI in test [16]; 3860 MFI in test [17]; 180 MFI in test [18]. This substance also gave a Max MFI in [19] of 120 MFI. Further, the Max Inhibition (%) in [10] is 17.8%; in test [11] it was -13%; in [12], -4.58%; in test [14], -4.1%; in [15], 27.4%.
Turning to Mouse IgG2a (antibody), the Max MFI worked out at 47 MFI in [2]; 267 MFI in test [3]; 261 MFI in test [6]; 11 MFI in [20]; 5 MFI in test [8]; 40 MFI in test [9]. The Max MFI in [13] amounted to 49 MFI; in test [16], 6.6 MFI; in test [18] it was 18 MFI; in test [19] it was 158 MFI. Also, the Max Inhibition (%) in test [11] is -13.9%; in [14], 2.1%; in test [15], 28.7%; in test [21], 12.3%.
Mouse IgG2a isotype control (antibody): the results for the Max MFI in test [20] and in test [22] were 349 MFI and 396 MFI, respectively.

These data come from patent US20250034266A1.
